In PMC5984683 (Cancer research, 2018):
Read-outs that look alike come from different tables or passages of the source.

How the values were obtained:
[1] = target: T1, full-length recombinant Fzd7 (human, UniProt O75084 33-574); assay: co-IP
[2] = target: T1, full-length recombinant Fzd7; assay: co-IP; remark: listed apart in the source

Question: Does DAVEEGDWTATVVDQQDCTLSLQLTTPANA [TG2 peptide 81[residues removed]110] bind [1]?
Answer: binds

B1: full length recombinant TG2 (enzyme, UniProt P21980 1-687, looked up)
chain: MAEELVLERCDLELETNGRDHHTADLCREKLVVRRGQPFWLTLHFEGRNYEASVDSLTFSVVTGPAPSQEAGTKARFPLRDAVEEGDWTATVVDQQDCTLSLQLTTPANAPIGLYRLSLEASTGYQGSSFVLGHFILLFNAWCPADAVYLDSEEERQEYVLTQQGFIYQGSAKFIKNIPWNFGQFEDGILDICLILLDVNPKFLKNAGRDCSRRSSPVYVGRVVSGMVNCNDDQGVLLGRWDNNYGDGVSPMSWIGSVDILRRWKNHGCQRVKYGQCWVFAAVACTVLRCLGIPTRVVTNYNSAHDQNSNLLIEYFRNEFGEIQGDKSEMIWNFHCWVESWMTRPDLQPGYEGWQALDPTPQEKSEGTYCCGPVPVRAIKEGDLSTKYDAPFVFAEVNADVVDWIQQDDGSVHKSINRSLIVGLKISTKSVGRDEREDITHTYKYPEGSSEEREAFTRANHLNKLAEKEETGMAMRIRVGQSMNMGSDFDVFAHITNNTAEEYVCRLLLCARTVSYNGILGPECGTKYLLNLNLEPFSEKSVPLCILYEKYRDCLTESNLIKVRALLVEPVINSYLLAERDLYLENPEIKIRILGEPKQKRKLVAEVSLQNPLPVALEGCTFTVEGAGLTEEQKTVEIPDPVEAGEEVKVRMDLLPLHMGLHKLVVNFESDKLKAVKGFRNVIIGPA
Question: Does B1 bind [2]?
Answer: binds

B2: recombinant mutant TG2 (C277A) (enzyme)
chain: MAEELVLERCDLELETNGRDHHTADLCREKLVVRRGQPFWLTLHFEGRNYEASVDSLTFSVVTGPAPSQEAGTKARFPLRDAVEEGDWTATVVDQQDCTLSLQLTTPANAPIGLYRLSLEASTGYQGSSFVLGHFILLFNAWCPADAVYLDSEEERQEYVLTQQGFIYQGSAKFIKNIPWNFGQFEDGILDICLILLDVNPKFLKNAGRDCSRRSSPVYVGRVVSGMVNCNDDQGVLLGRWDNNYGDGVSPMSWIGSVDILRRWKNHGCQRVKYGQAWVFAAVACTVLRCLGIPTRVVTNYNSAHDQNSNLLIEYFRNEFGEIQGDKSEMIWNFHCWVESWMTRPDLQPGYEGWQALDPTPQEKSEGTYCCGPVPVRAIKEGDLSTKYDAPFVFAEVNADVVDWIQQDDGSVHKSINRSLIVGLKISTKSVGRDEREDITHTYKYPEGSSEEREAFTRANHLNKLAEKEETGMAMRIRVGQSMNMGSDFDVFAHITNNTAEEYVCRLLLCARTVSYNGILGPECGTKYLLNLNLEPFSEKSVPLCILYEKYRDCLTESNLIKVRALLVEPVINSYLLAERDLYLENPEIKIRILGEPKQKRKLVAEVSLQNPLPVALEGCTFTVEGAGLTEEQKTVEIPDPVEAGEEVKVRMDLLPLHMGLHKLVVNFESDKLKAVKGFRNVIIGPA
Question: Does B2 bind [2]?
Answer: binds
